A short description of the data set: protein stability index of a GFP-peptide fusion (GPS, HEK-293T) (PSI 1-6); higher = more stable. The following applies: c terminus: a fixed tail appended.

± gives the standard deviation.
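Further: 24-mer peptide tiles fused after GFP, lentivirally expressed, FACS-sorted into six equal bins by GFP/DsRed ratio, decoded by Illumina sequencing, PSI is the read-weighted mean bin number.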

In the case of RNTPIEALCENFPEEMATYLRYVR [CSNK1G1], the protein stability index reads like this: (treatment: DMSO) 2.84 ± 0.26; (treatment: MLN4924 1 uM, 8 h) 2.9 ± 0.56.
In the same order, the values of PAFPFIYTPTAEDSAQMQNGGPST [ANKRD40] are 4.55 ± 0.12 and 4.5 ± 0.23.
Taken in the same sequence, the figures for YQEASNLEQFVTRFLLKETLNQLQ [NECAB1] were 2.66 ± 0.81 and 2.44 ± 0.69.
In the case of GKLVLSSLPKRLCLVCGDVASGYH [ESRRA], the protein stability index by setting is: (treatment: DMSO) 2.38 ± 0.45; (treatment: MLN4924 1 uM, 8 h) 1.97 ± 0.33.
Taken in the same sequence, the figures for ATNDDPWGPSGQLMGEIAKATFMY [CLINT1] were 2.34 ± 0.38 and 2.32 ± 0.27.
Take EKLLERQGQAKTPDSMFLAMLAVV [CDK11A]: the protein stability index turned out to be 1.95 ± 0.21 (treatment: DMSO) and 2.2 ± 0.55 (treatment: MLN4924 1 uM, 8 h).
Taken in the same sequence, the figures for VKAEPFIKWLKEAEEESSGGEEED [EIF5] were 5.3 ± 0.28 and 5.4 ± 0.15.
In the same order, the values of TLNQLQSLQNSLECAMETTEEQTR [NECAB1] are 4.94 ± 0.13 and 4.97 ± 0.28.
For VAPPEDKESESEAKVDGETASDSE [CDS2], the protein stability index is, setting by setting: (treatment: DMSO) 5.55 ± 0.23; (treatment: MLN4924 1 uM, 8 h) 5.61 ± 0.18.
In the same order, the values of YRRVNELLLSILNPTRQDESIQRI [ZER1] are 2.46 ± 0.14 and 2.66 ± 0.53.
For EALKHPWICQRSTVASMMHRQETV [CAMK2D], the protein stability index by setting is: (treatment: DMSO) 2.81 ± 0.28; (treatment: MLN4924 1 uM, 8 h) 2.73 ± 0.25.
In the same order, the values of SVPPVAGAPSVGQPGAGFGMPPAG [SNAP91] are 4.38 ± 0.24 and 4.38 ± 0.058.
QLRNCLRILMGELSNHHDHHDEFC [BEX3]: the protein stability index (treatment: DMSO) is 2.28 ± 0.41 and the protein stability index (treatment: MLN4924 1 uM, 8 h) is 2.21 ± 0.12.
In the same order, the values of GPPAPVGPPHARISQHGDPLLSNT [EMID1] are 4.37 ± 0.24 and 4.55 ± 0.72.
Taken in the same sequence, the figures for EQTAPGDSTGYMEVSLDSLDLRVK [EHMT1] were 4.59 ± 0.32 and 4.87 ± 0.2.
For ALRERWLLEGTPSSASEGDEDLRR [PALM], the protein stability index (treatment: DMSO) was determined as 5 ± 0.25 and the protein stability index (treatment: MLN4924 1 uM, 8 h) came to 5.14 ± 0.21.
For LLYWGIAEDHLDGCCKRRYLQKIE [KCNG1], the protein stability index is 1.95 ± 0.33 (treatment: DMSO) and 2.3 ± 0.12 (treatment: MLN4924 1 uM, 8 h).
In the same order, the values of VVCASYEDYGHWLLCLRAVTHREG [PLEKHN1] are 2.52 ± 0.56 and 2.62 ± 0.49.
Taken in the same sequence, the figures for SLENTLTESEAHYSSQLSQVQSLI [KRT34] were 3.32 ± 0.093 and 3.42 ± 0.31.
In the same order, the values of PFDGLLEERALLLGRMGKHEQALF [VPS39] are 2.59 ± 0.28 and 2.67 ± 0.37.
GQYRANEGTSSIVMEIQKQIEKKE [TAF7L] showed a protein stability index (treatment: DMSO) of 5.06 ± 0.35 and a protein stability index (treatment: MLN4924 1 uM, 8 h) of 5.16 ± 0.46.
As for HGVDLSALRGAAVDEYFRQPVVDT [CARM1], the protein stability index reads like this: (treatment: DMSO) 4.13 ± 0.41; (treatment: MLN4924 1 uM, 8 h) 4.29 ± 0.56.
In the same order, the values of SMAMEYFDEKIVPILKRKLPGSDV [FBXO28] are 3 ± 0.22 and 3.25 ± 0.073.
In the case of CHLNGIVHRDLKPENLLLASKSKG [CAMK2D], the protein stability index reads like this: (treatment: DMSO) 3.52 ± 0.36; (treatment: MLN4924 1 uM, 8 h) 3.56 ± 0.19.
Taken in the same sequence, the figures for NKNEVFYQCPDQMARNPAAIDMFI [FBXO3] were 2.42 ± 0.17 and 2.65 ± 0.48.
Take ETLITTIDSSSSWWTNWVIPAISA [CYB5A]: the protein stability index reads like this: (treatment: DMSO) 2.47 ± 0.63; (treatment: MLN4924 1 uM, 8 h) 2.48 ± 0.49.
Taken in the same sequence, the figures for AARSPQGLGASTAEISARTMQSMF [PTPRD] were 3.38 ± 0.26 and 3.29 ± 0.34.
As to NRVSWWGSTLAMLQRLKEQQFVIA [ZBED1], the protein stability index runs as follows: (treatment: DMSO) 2.41 ± 0.38; (treatment: MLN4924 1 uM, 8 h) 2.48 ± 1.
In the same order, the values of QSYPSQDKPLPPPPPGSLSRTQEP [SOAT2] are 5.2 ± 0.41 and 5.08 ± 0.24.
As to TGLNNGRIKIWDVYTGKLLLNLVD [WSB1], the protein stability index was 2.54 ± 1.3 (treatment: DMSO) and 2.25 ± 0.61 (treatment: MLN4924 1 uM, 8 h).
Turning to LNELPVPMVARYIRINPQSWFDNG [CPXM2], the protein stability index was found to be 2.21 ± 0.42 (treatment: DMSO) and 2.43 ± 0.28 (treatment: MLN4924 1 uM, 8 h).
YDLEYWAFHDGQRSRLRPRDDLDR [TRIM14]: the protein stability index stood at 3.52 ± 0.36 (treatment: DMSO) and 3.69 ± 0.34 (treatment: MLN4924 1 uM, 8 h).
Take HIDSSCSSFIKTEPSSPASLTDSV [ESRRG]: the protein stability index by setting is: (treatment: DMSO) 4.29 ± 0.18; (treatment: MLN4924 1 uM, 8 h) 4.23 ± 0.2.
With IQQGINAVNQEAMNNAQRIEKWVI [ACSBG2], the protein stability index reads like this: (treatment: DMSO) 2.89 ± 0.44; (treatment: MLN4924 1 uM, 8 h) 2.94 ± 0.51.
Taken in the same sequence, the figures for QKAGVTRSGRLILWEAPPLGAGGG [NEK8] were 3.31 ± 0.29 and 2.95 ± 0.32.
In the same order, the values of PALLFPATRGVPAKRLLDADDAAA [TRIB1] are 4.74 ± 0.23 and 4.67 ± 0.27.
